Reference: patent publication US20240226298A1 (JUNO THERAPEUTICS, published 2024)

T1: B-lymphocyte antigen CD19 (CD19) (human, UniProt P15391 20-556)
T1 sequence (looked up): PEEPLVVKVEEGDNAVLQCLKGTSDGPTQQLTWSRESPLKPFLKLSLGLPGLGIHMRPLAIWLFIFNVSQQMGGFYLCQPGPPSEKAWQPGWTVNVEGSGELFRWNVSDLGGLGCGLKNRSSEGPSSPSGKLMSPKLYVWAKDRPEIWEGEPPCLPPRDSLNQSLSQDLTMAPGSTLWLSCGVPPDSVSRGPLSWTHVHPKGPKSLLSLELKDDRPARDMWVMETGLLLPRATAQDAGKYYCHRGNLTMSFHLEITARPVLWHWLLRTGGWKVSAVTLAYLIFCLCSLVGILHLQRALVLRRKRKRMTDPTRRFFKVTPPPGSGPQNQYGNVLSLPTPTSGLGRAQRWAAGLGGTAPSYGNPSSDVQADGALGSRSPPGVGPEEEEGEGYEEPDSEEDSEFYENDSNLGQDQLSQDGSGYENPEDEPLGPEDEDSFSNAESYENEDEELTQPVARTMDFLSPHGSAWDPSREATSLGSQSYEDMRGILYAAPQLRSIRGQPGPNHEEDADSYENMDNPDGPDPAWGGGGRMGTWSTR


Columns and labels:
Experiment in all cases: cell-based or functional assay
[1] = target: T2, B-cell activating factor receptor (BAFF-R) (human, UniProt Q96RJ3 1-184)
[2] = target: T2, B-cell activating factor receptor …; remark: listed apart in the source
[3] = target: T1, B-lymphocyte antigen CD19 (CD19)

decrease in IFN-γ production with sBAFF, alone or relative to FMC63 scFv alone (JeKo-1 co-culture) [1] [%] | decrease of IFN-γ with FMC63 scFv + sBAFF compared to the inhibition from FMC63 scFv alone (JeKo-1 co-culture) [1] [%] | decrease in IFN-γ production with FMC63 scFv + sBAFF relative to FMC63 scFv alone (JeKo-1 co-culture) [1] [%] | inhibition of IFN-γ production by CAR T cells when JeKo-1 target cells were preincubated with both FMC63 scFv and sBAFF (20 µg/mL each), relative to target-only co-culture; legend: ++ = High, >80% [2] [%] | inhibition of IFN-γ production by CAR T cells when JeKo-1 target cells were preincubated with both FMC63 scFv and sBAFF (20 µg/mL each), relative to target-only co-culture; legend: ++ = High, >80% [3] [%] | Binder
≤ 20 | ≤ 10 |  |  |  | JH4 CAR/LiD (other) DIQMTQTTSSLSASLGDRVTISCRASQDISKYLNWYQQKPDGTVKLLIYHTSRLHSGVPSRFSGSGSGTDYSLTISNLEQEDIATYFCQQGNTLPYTFGGGTKLEITGSTSGSGKPGSGEGSTKGEVKLQESGPGLVAPSQSLSVTCTVSGVSLPDYGVSWIRQPPRKGLEWLGVIWGSETTYYNSALKSRLTIIKDNSKSQVFLKMNSLQTDDTAIYYCAKHYYYGGSYAMDYWGQGTSVTVSSGGGGSQVQLQESGPGLVKPSETLSLTCTVSGGSISSYYWSWIRQSPGKGLEWIGYIHYSGNTNYNPSLKSRVTISVDTSKNQFSLKLSSVTAADTAVYYCAREDDYWGQGTLVTVSSGGGGSGGGGSGGGGSEIVMTQSPATLSLSPGERATLSCRASQSVSSNYLSWYQQKPGQAPRLLIYGASTRATGIPARFSGSGSGTDFTLTISSLQPEDFAVYYCQQDFDFPFTFGPGTKVDIKRESKYGPPCPPCPMFWVLVVVGGVLACYSLLVTVAFIIFWVKRGRKKLLYIFKQPFMRPVQTTQEEDGCSCRFPEEEEGGCELRVKFSRSADAPAYQQGQNQLYNELNLGRREEYDVLDKRRGRDPEMGGKPRRKNPQEGLYNELQKDKMAEAYSEIGMKGERRRGKGHDGLYQGLSTATKDTYDALHMQALPPR
 | ≤ 10 | > 50 | > 80 | > 80 | JH2 CAR/LoP (other) DIQMTQTTSSLSASLGDRVTISCRASQDISKYLNWYQQKPDGTVKLLIYHTSRLHSGVPSRFSGSGSGTDYSLTISNLEQEDIATYFCQQGNTLPYTFGGGTKLEITGGGGSQVQLQESGPGLVKPSETLSLTCTVSGGSISSYYWSWIRQPPGKGLEWIGYINNSGSTNYNPSLKSRVTISVDTSKNQFSLKLSSVTAADTAVYYCAREDDYWGQGTLVTVSSGGGGSGGGGSGGGGSEIVMTQSPATLSLSPGERATLSCRASQIISSSYLSWYQQKPGQAPRLLIYGASTRATGIPARFSGSGSGTDFTLTISSLQPEDFAVYYCQQDYDFPFTFGPGTKVDIKRGGGGSEVKLQESGPGLVAPSQSLSVTCTVSGVSLPDYGVSWIRQPPRKGLEWLGVIWGSETTYYNSALKSRLTIIKDNSKSQVFLKMNSLQTDDTAIYYCAKHYYYGGSYAMDYWGQGTSVTVSSESKYGPPCPPCPMFWVLVVVGGVLACYSLLVTVAFIIFWVKRGRKKLLYIFKQPFMRPVQTTQEEDGCSCRFPEEEEGGCELRVKFSRSADAPAYQQGQNQLYNELNLGRREEYDVLDKRRGRDPEMGGKPRRKNPQEGLYNELQKDKMAEAYSEIGMKGERRRGKGHDGLYQGLSTATKDTYDALHMQALPPR
≤ 20 | ≤ 10 |  |  |  | JH3 CAR/LoD (other) EIVMTQSPATLSLSPGERATLSCRASQSVSSNYFSWYQQKPGQAPRLLIYGASTRATGIPARFSGSGSGTDFTLTISSLQPEDFAVYYCQQDYDFPFTFGPGTKVDIKRGGGGSGGGGSDIQMTQTTSSLSASLGDRVTISCRASQDISKYLNWYQQKPDGTVKLLIYHTSRLHSGVPSRFSGSGSGTDYSLTISNLEQEDIATYFCQQGNTLPYTFGGGTKLEITGSTSGSGKPGSGEGSTKGEVKLQESGPGLVAPSQSLSVTCTVSGVSLPDYGVSWIRQPPRKGLEWLGVIWGSETTYYNSALKSRLTIIKDNSKSQVFLKMNSLQTDDTAIYYCAKHYYYGGSYAMDYWGQGTSVTVSSGGGGSGGGGSQVQLQESGPGLVKPSETLSLTCTVSGGSISNYYWSWIRQPPGKGLEWIGYIYYSGSTIYNPSLKSRVTISVDTSKNQFSLKLSSVTAADTAVYYCAGDSSGIDYWGQGTLVTVSSESKYGPPCPPCPMFWVLVVVGGVLACYSLLVTVAFIIFWVKRGRKKLLYIFKQPFMRPVQTTQEEDGCSCRFPEEEEGGCELRVKFSRSADAPAYQQGQNQLYNELNLGRREEYDVLDKRRGRDPEMGGKPRRKNPQEGLYNELQKDKMAEAYSEIGMKGERRRGKGHDGLYQGLSTATKDTYDALHMQALPPR

Continued, binder first:

Binder | decrease in IFN-γ production with sBAFF, alone or relative to FMC63 scFv alone (JeKo-1 co-culture) [1] [%] | decrease of IFN-γ with FMC63 scFv + sBAFF compared to the inhibition from FMC63 scFv alone (JeKo-1 co-culture) [1] [%] | decrease in IFN-γ production with FMC63 scFv + sBAFF relative to FMC63 scFv alone (JeKo-1 co-culture) [1] [%] | inhibition of IFN-γ production by CAR T cells when JeKo-1 target cells were preincubated with both FMC63 scFv and sBAFF (20 µg/mL each), relative to target-only co-culture; legend: ++ = High, >80% [2] [%] | inhibition of IFN-γ production by CAR T cells when JeKo-1 target cells were preincubated with both FMC63 scFv and sBAFF (20 µg/mL each), relative to target-only co-culture; legend: ++ = High, >80% [3] [%]
JH2 CAR/LoD/b (other) QVQLQESGPGLVKPSETLSLTCTVSGGSISSYYWSWIRQPPGKGLEWIGYINNSGSTNYNPSLKSRVTISVDTSKNQFSLKLSSVTAADTAVYYCAREDDYWGQGTLVTVSSGGGGSDIQMTQTTSSLSASLGDRVTISCRASQDISKYLNWYQQKPDGTVKLLIYHTSRLHSGVPSRFSGSGSGTDYSLTISNLEQEDIATYFCQQGNTLPYTFGGGTKLEITGSTSGSGKPGSGEGSTKGEVKLQESGPGLVAPSQSLSVTCTVSGVSLPDYGVSWIRQPPRKGLEWLGVIWGSETTYYNSALKSRLTIIKDNSKSQVFLKMNSLQTDDTAIYYCAKHYYYGGSYAMDYWGQGTSVTVSSGGGGSEIVMTQSPATLSLSPGERATLSCRASQIISSSYLSWYQQKPGQAPRLLIYGASTRATGIPARFSGSGSGTDFTLTISSLQPEDFAVYYCQQDYDFPFTFGPGTKVDIKRESKYGPPCPPCPMFWVLVVVGGVLACYSLLVTVAFIIFWVKRGRKKLLYIFKQPFMRPVQTTQEEDGCSCRFPEEEEGGCELRVKFSRSADAPAYQQGQNQLYNELNLGRREEYDVLDKRRGRDPEMGGKPRRKNPQEGLYNELQKDKMAEAYSEIGMKGERRRGKGHDGLYQGLSTATKDTYDALHMQALPPR | ≤ 20 | ≤ 10 |  |  | 
JH1 CAR/LoP (other) DIQMTQTTSSLSASLGDRVTISCRASQDISKYLNWYQQKPDGTVKLLIYHTSRLHSGVPSRFSGSGSGTDYSLTISNLEQEDIATYFCQQGNTLPYTFGGGTKLEITGGGGSQVQLVQSGAEVKKPGASVKVSCKASGYTFTSYAMHWVRQAPGQRLEWMGWINAGNGNTKYSQKFQGRVTITRDTSASTAYMELRSLRSDDTAVYYCASGPGRLPVVWGQGTLVTVSSGGGGSGGGGSGGGGSSYVLTQPPSVSVAPGKTARITCGGNNIGSKSVHWYQQKPGQAPVLVVYDDSDRPSGIPERFSGSNSGNTATLTISRVEAGDEADYYCQVWDSSSDHVVFGGGTKLTVLGGGGSEVKLQESGPGLVAPSQSLSVTCTVSGVSLPDYGVSWIRQPPRKGLEWLGVIWGSETTYYNSALKSRLTIIKDNSKSQVFLKMNSLQTDDTAIYYCAKHYYYGGSYAMDYWGQGTSVTVSSESKYGPPCPPCPMFWVLVVVGGVLACYSLLVTVAFIIFWVKRGRKKLLYIFKQPFMRPVQTTQEEDGCSCRFPEEEEGGCELRVKFSRSADAPAYQQGQNQLYNELNLGRREEYDVLDKRRGRDPEMGGKPRRKNPQEGLYNELQKDKMAEAYSEIGMKGERRRGKGHDGLYQGLSTATKDTYDALHMQALPPR |  |  | > 50 | > 80 | > 80
JH2 CAR/LiD/b (other) DIQMTQTTSSLSASLGDRVTISCRASQDISKYLNWYQQKPDGTVKLLIYHTSRLHSGVPSRFSGSGSGTDYSLTISNLEQEDIATYFCQQGNTLPYTFGGGTKLEITGSTSGSGKPGSGEGSTKGEVKLQESGPGLVAPSQSLSVTCTVSGVSLPDYGVSWIRQPPRKGLEWLGVIWGSETTYYNSALKSRLTIIKDNSKSQVFLKMNSLQTDDTAIYYCAKHYYYGGSYAMDYWGQGTSVTVSSGGGGSEIVMTQSPATLSLSPGERATLSCRASQIISSSYLSWYQQKPGQAPRLLIYGASTRATGIPARFSGSGSGTDFTLTISSLQPEDFAVYYCQQDYDFPFTFGPGTKVDIKRGGGGSGGGGSGGGGSQVQLQESGPGLVKPSETLSLTCTVSGGSISSYYWSWIRQPPGKGLEWIGYINNSGSTNYNPSLKSRVTISVDTSKNQFSLKLSSVTAADTAVYYCAREDDYWGQGTLVTVSSESKYGPPCPPCPMFWVLVVVGGVLACYSLLVTVAFIIFWVKRGRKKLLYIFKQPFMRPVQTTQEEDGCSCRFPEEEEGGCELRVKFSRSADAPAYQQGQNQLYNELNLGRREEYDVLDKRRGRDPEMGGKPRRKNPQEGLYNELQKDKMAEAYSEIGMKGERRRGKGHDGLYQGLSTATKDTYDALHMQALPPR | ≤ 20 | ≤ 10 |  |  | 
JH2 CAR/LiD/a (other) DIQMTQTTSSLSASLGDRVTISCRASQDISKYLNWYQQKPDGTVKLLIYHTSRLHSGVPSRFSGSGSGTDYSLTISNLEQEDIATYFCQQGNTLPYTFGGGTKLEITGSTSGSGKPGSGEGSTKGEVKLQESGPGLVAPSQSLSVTCTVSGVSLPDYGVSWIRQPPRKGLEWLGVIWGSETTYYNSALKSRLTIIKDNSKSQVFLKMNSLQTDDTAIYYCAKHYYYGGSYAMDYWGQGTSVTVSSGGGGSQVQLQESGPGLVKPSETLSLTCTVSGGSISSYYWSWIRQPPGKGLEWIGYINNSGSTNYNPSLKSRVTISVDTSKNQFSLKLSSVTAADTAVYYCAREDDYWGQGTLVTVSSGGGGSGGGGSGGGGSEIVMTQSPATLSLSPGERATLSCRASQIISSSYLSWYQQKPGQAPRLLIYGASTRATGIPARFSGSGSGTDFTLTISSLQPEDFAVYYCQQDYDFPFTFGPGTKVDIKRESKYGPPCPPCPMFWVLVVVGGVLACYSLLVTVAFIIFWVKRGRKKLLYIFKQPFMRPVQTTQEEDGCSCRFPEEEEGGCELRVKFSRSADAPAYQQGQNQLYNELNLGRREEYDVLDKRRGRDPEMGGKPRRKNPQEGLYNELQKDKMAEAYSEIGMKGERRRGKGHDGLYQGLSTATKDTYDALHMQALPPR | ≤ 20 | ≤ 10 |  |  | 
